Reference: the RNAGym collection of RNA variant scans (doi:10.7554/elife.80360)

B1: Hammerhead Ribozyme (parent)
chain: ACCGGAUGUGCUUUCCGGUCUGAUGAGUCCGUGAGGACGAAACAG

Variants of: B1
Test: self-cleavage, relative activity (ratio to wild type); higher = more cleavage; co-transcriptional

Variant | self-cleavage
C16U A34G | 1.08
C16U A34C | 1
C2A G35A | 0.402
G18C A42C | 0.328
C3U C30A | 1.05
G25U C30U | 0.259
U19C C43U | 0.376
C38G | 0.767
U9A G18A | 0.497
G27U U28C | 0.38
C30A G39A | 0.348
G31C U32C | 0.773
A23U A40G | 0.237
U24C G35C | 0.461
A44G G45A | 1.25
C15G G31U | 0.856
U21A U24G | 0.516
U7C U14A | 1.26
U7G G35U | 0.911
U19G G27U | 0.292
U7A C15G | 0.987
U7G G18A | 0.807
G31C G36A | 0.527
G31C G36C | 0.453

Variant | self-cleavage
G27C A44C | 0.38
U9C C29A | 0.77
C30A C43G | 0.386
C20A A40U | 0.382
G5A U19G | 0.373
G4C G10C | 0.436
U13G G22A | 0.383
U12C U19A | 0.388
U19C A41C | 0.429
U7A U12A | 1.55
G25U U28A | 0.385
G5U G22U | 0.304
G18U U24A | 0.858
C16G C38G | 0.358
C16G C38A | 0.453
A23C A41U | 0.361
G5A G18U | 0.371
C20U A37C | 0.549
A1C A41U | 0.341
U13C A23U | 0.237
C15A G18U | 0.33
A6G G27C | 0.45
A23G C30G | 0.248
U21G G27A | 0.39

Variant | self-cleavage
C2A U13C | 1.05
C20A U32C | 0.541
A34U A42C | 0.3
A6C G8A | 0.783
C30A U32C | 0.879
G33A A37U | 0.727
G22U A42C | 0.359
U14C C20U | 0.457
C20A A41C | 0.388
C20A C38G | 0.429
A6G A34C | 0.604
U7C U13G | 0.7
A6C G18C | 0.311
A1C U32G | 0.302
G31A G45U | 0.805
U12G A34G | 0.909
C3U C15U | 0.984
U14A G17U | 0.564
C3G G18U | 0.535
U13A C30G | 0.947
U13A C30U | 1.46
C16A A37U | 0.616
G35C G36C | 0.425
C11U G39A | 0.383

Variant | self-cleavage
G5A C15U | 1.78
A26G U32C | 0.328
U14A A26C | 0.47
G17A U28C | 0.331
G17U G25U | 0.37
G5C U19G | 0.281
C3G A44C | 0.374
U19G U24G | 0.323
A1C C20A | 0.349
C11G A40C | 0.838
U32C G35C | 0.647
A37C A41G | 0.404
U7C C11A | 1.37
U9C G22C | 0.266
C3G G35A | 0.292
C16A C38U | 0.85
U19G A41U | 0.342
U14A G27A | 0.771
A1G U14G | 1.85
C16U G33A | 1.14
G25C A37C | 0.285
G17A A26G | 0.297
U28C G31A | 1.03
A23G C43G | 0.35

Variant | self-cleavage
C29G G35U | 0.665
C2A G36U | 0.341
U9G A34U | 0.631
C3U G31C | 0.974
U28A G33U | 0.884
A44C | 0.663
G39A A41C | 0.341
G18A G27U | 0.393
G18A G27C | 0.43
G25U C43G | 0.357
U28A C29G | 0.445
G8U G39C | 0.417
G22A A34C | 0.286
G5C C43U | 0.316
G5U G31A | 1.25
U14C A23C | 0.373
A1C C29G | 0.341
U13A G35U | 0.727
G10U C38U | 1.09
C20A C43A | 0.321
G5U G45A | 0.431
U14C U19A | 0.362
U12A C38G | 0.719
U7G G31C | 0.968

Variant | self-cleavage
G18A G45A | 0.354
A6C G22A | 0.29
G27A C43U | 0.33
G17A A44U | 0.449
G8C C11G | 1.25
U28C C43A | 0.289
G22C G33C | 0.381
G25C G35C | 0.355
G10C A23G | 0.309
G25U A41C | 0.316
U9C C15A | 0.956
A23G C29A | 0.319
A23G C29U | 0.356
C16A A26U | 0.59
C15A C43A | 0.341
G27C U28A | 0.508
C29G C43A | 0.376
G10C U32G | 0.638
G45U | 0.898
G31U A40C | 0.797
G25C A42G | 0.27
U13G C29G | 0.581
G8U G10A | 1.47
G25A G35A | 0.315

Variant | self-cleavage
U7C A37C | 0.828
U13G C15U | 0.763
G25U A40C | 0.272
U14A G22A | 0.36
C3G U14C | 0.56
C3G U14A | 0.347
C11U G25A | 0.39
C11U G25C | 0.248
U32G A41U | 0.318
G10U G17C | 0.649
G5A A44C | 0.662
G5C C38U | 0.479
U9G G25U | 0.242
G39A A44U | 0.342
U21C A26G | 0.295
C16A G17C | 0.386
G17C A41U | 0.318
U12A C29A | 0.634
G5C G39C | 0.312
G5C G39U | 0.251
G5C A41G | 0.27
U14A G18U | 0.644
G10C U24G | 1.06
